Sequences and labels used below:
T1: Vam3, the vacuolar Qa-SNARE (wild type) (yeast, UniProt Q12241 1-283)
T1 sequence: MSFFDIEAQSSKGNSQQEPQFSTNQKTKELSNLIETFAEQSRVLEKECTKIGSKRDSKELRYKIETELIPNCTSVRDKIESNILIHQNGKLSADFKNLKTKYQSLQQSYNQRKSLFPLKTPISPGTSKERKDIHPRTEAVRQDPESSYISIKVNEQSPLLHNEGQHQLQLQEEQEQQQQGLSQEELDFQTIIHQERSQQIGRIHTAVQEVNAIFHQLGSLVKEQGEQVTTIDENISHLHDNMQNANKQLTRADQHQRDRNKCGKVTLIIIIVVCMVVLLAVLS

B1: R(JxQa): Nyv1 with the juxtamembrane region of Vam3 and its own TM (other)
chain: MKRFNVSYVEVIKNGETISSCFQPFQKNENYGTITSANEQITPVIFHNLIMDMVLPKVVPIKGNKVTKMSMNLIDGFDCFYSTDDHDPKTVYVCFTLVDMPKILPIRILSGLQEYESNATNELLSSHVGQILDSFHEELVEYRNQTLNSSGNGQSSNGNGQNTISDIGDATEDQIKDVIQIMNDNIDKFLERQERVSLLVDKTSQLNSSSNKFRRKAVNIKQHQRDRNKCGNITLLTFTIILFVSAAFMFFYLW
B2: Qa(JxR): Vam3 with the juxtamembrane region of Nyv1 and its own TM (other)
chain: MSFFDIEAQSSKGNSQQEPQFSTNQKTKELSNLIETFAEQSRVLEKECTKIGSKRDSKELRYKIETELIPNCTSVRDKIESNILIHQNGKLSADFKNLKTKYQSLQQSYNQRKSLFPLKTPISPGTSKERKDIHPRTEAVRQDPESSYISIKVNEQSPLLHNEGQHQLQLQEEQEQQQQGLSQEELDFQTIIHQERSQQIGRIHTAVQEVNAIFHQLGSLVKEQGEQVTTIDENISHLHDNMQNANKQLTRADEIMWWQKVKKVTLIIIIVVCMVVLLAVLS
B3: Vti1, the vacuolar Qb-SNARE (wild type, membrane-anchored) (natural protein)
chain: MSSLLISYESDFKTTLEQAKASLAEAPSQPLSQRNTTLKHVEQQQDELFDLLDQMDVEVNNSIGDASERATYKAKLREWKKTIQSDIKRPLQSLVDSGDRDRLFGDLNASNIDDDQRQQLLSNHAILQKSGDRLKDASRIANETEGIGSQIMMDLRSQRETLENARQTLFQADSYVDKSIKTLKTMTRRLVANKFISYAIIAVLILLILLVLFSKFK

Assay in all cases: co-IP
Test [1] deals with B2.
Test [2] deals with B3.
Test [3] has as its target T1, Vam3, the vacuolar Qa-SNARE (wild type).

For the molecule B1, the binding result in test [1] was “binds”.
Regarding B2, the binding result in test [2] is on record as “binds”.
Regarding B3, the binding result in test [3] is on record as “binds”.

The record behind these values is publication PMC9282010 (Molecular Biology of the Cell, 2022).
